# Measured values as given in US20060269997A1 (Genentech, published 2006).
# B1: His 86** (ligand)
# chain: APMAEGGGQNHHEVVKFMDVYQRSYCHPIETLVDIFQEYPDEIEYIFKPSCVPLMRCGGCCNDEGLECVPTEESNITMQIMRIKPAQGQHIGEMSFLQHNKCECRPKKD
# B2: Ile 46* (ligand)
# chain: APMAEGGGQNHHEVVKFMDVYQRSYCHPIETLVDIFQEYPDEIEYAFKPSCVPLMRCGGCCNDEGLECVPTEESNITMQIMRIKPHQGQHIGEMSFLQHNKCECRPKKD
# B3: Leu 66** (ligand)
# chain: APMAEGGGQNHHEVVKFMDVYQRSYCHPIETLVDIFQEYPDEIEYIFKPSCVPLMRCGGCCNDEGAECVPTEESNITMQIMRIKPHQGQHIGEMSFLQHNKCECRPKKD
# B4: Phe 47** (ligand)
# chain: APMAEGGGQNHHEVVKFMDVYQRSYCHPIETLVDIFQEYPDEIEYIAKPSCVPLMRCGGCCNDEGLECVPTEESNITMQIMRIKPHQGQHIGEMSFLQHNKCECRPKKD
# B5: Tyr 21** (ligand)
# chain: APMAEGGGQNHHEVVKFMDVAQRSYCHPIETLVDIFQEYPDEIEYIFKPSCVPLMRCGGCCNDEGLECVPTEESNITMQIMRIKPHQGQHIGEMSFLQHNKCECRPKKD
# B6: Met 81** (ligand)
# chain: APMAEGGGQNHHEVVKFMDVYQRSYCHPIETLVDIFQEYPDEIEYIFKPSCVPLMRCGGCCNDEGLECVPTEESNITMQIARIKPHQGQHIGEMSFLQHNKCECRPKKD
# B7: Lys 16 (ligand)
# chain: APMAEGGGQNHHEVVAFMDVYQRSYCHPIETLVDIFQEYPDEIEYIFKPSCVPLMRCGGCCNDEGLECVPTEESNITMQIMRIKPHQGQHIGEMSFLQHNKCECRPKKD
# B8: Pro 106 (ligand)
# chain: APMAEGGGQNHHEVVKFMDVYQRSYCHPIETLVDIFQEYPDEIEYIFKPSCVPLMRCGGCCNDEGLECVPTEESNITMQIMRIKPHQGQHIGEMSFLQHNKCECRAKKD
# B9: Tyr 25** (ligand)
# chain: APMAEGGGQNHHEVVKFMDVYQRSACHPIETLVDIFQEYPDEIEYIFKPSCVPLMRCGGCCNDEGLECVPTEESNITMQIMRIKPHQGQHIGEMSFLQHNKCECRPKKD
# B10: Phe 17* (ligand)
# chain: APMAEGGGQNHHEVVKAMDVYQRSYCHPIETLVDIFQEYPDEIEYIFKPSCVPLMRCGGCCNDEGLECVPTEESNITMQIMRIKPHQGQHIGEMSFLQHNKCECRPKKD
# B11: LK-VRB-9s (ligand, human, UniProt P15692-4 27-135, looked up)
# chain: APMAEGGGQNHHEVVKFMDVYRRSYCHPIETLVDIFQEYPDEIEYIFKPSCVPLMRCGGCCNSEMRECVPTEESNITMQIMRIKPHQGQHIGEMSFLQHNKCECRPKKD
# B12: Met 18** (ligand)
# chain: APMAEGGGQNHHEVVKFADVYQRSYCHPIETLVDIFQEYPDEIEYIFKPSCVPLMRCGGCCNDEGLECVPTEESNITMQIMRIKPHQGQHIGEMSFLQHNKCECRPKKD
# B13: Ile 43* (ligand)
# chain: APMAEGGGQNHHEVVKFMDVYQRSYCHPIETLVDIFQEYPDEAEYIFKPSCVPLMRCGGCCNDEGLECVPTEESNITMQIMRIKPHQGQHIGEMSFLQHNKCECRPKKD
# B14: Lys 101 (ligand)
# chain: APMAEGGGQNHHEVVKFMDVYQRSYCHPIETLVDIFQEYPDEIEYIFKPSCVPLMRCGGCCNDEGLECVPTEESNITMQIMRIKPHQGQHIGEMSFLQHNACECRPKKD
# B15: LK-VRB-5s (ligand, human, UniProt P15692-4 27-135, looked up)
# chain: APMAEGGGQNHHEVVKFMDVYQRSYCHPIETLVDIFQEYPDEIEYIFKPSCVPLMRCGGCCNSEGRECVPTEESNITMQIMRIKPHQGQHIGEMSFLQHNKCECRPKKD
# B16: Lys 48** (ligand)
# chain: APMAEGGGQNHHEVVKFMDVYQRSYCHPIETLVDIFQEYPDEIEYIFAPSCVPLMRCGGCCNDEGLECVPTEESNITMQIMRIKPHQGQHIGEMSFLQHNKCECRPKKD
# B17: LK-VRB-6s (ligand, human, UniProt P15692-4 27-135, looked up)
# chain: APMAEGGGQNHHEVVKFMDVYQRSYCHPIETLVDIFQEYPDEIEYIFKPSCVPLMRCGGCCNSEATECVPTEESNITMQIMRIKPHQGQHIGEMSFLQHNKCECRPKKD
# B18: Ile 91 (ligand)
# chain: APMAEGGGQNHHEVVKFMDVYQRSYCHPIETLVDIFQEYPDEIEYIFKPSCVPLMRCGGCCNDEGLECVPTEESNITMQIMRIKPHQGQHAGEMSFLQHNKCECRPKKD
# B19: Ile 83* (ligand)
# chain: APMAEGGGQNHHEVVKFMDVYQRSYCHPIETLVDIFQEYPDEIEYIFKPSCVPLMRCGGCCNDEGLECVPTEESNITMQIMRAKPHQGQHIGEMSFLQHNKCECRPKKD
# How the values were obtained:
# KDR (1-3) monomer [1] = biological target: T1, KDR (1-3) monomer (UniProt P35968 20-327, limits assumed, biotin-labeled in the ELISA of Example 8); test: competition ELISA: plate coated with VEGF (8-109), 100 pM biotin-labeled KDR(1-3), serial dilutions of the competing VEGF (Example 8)
# T1 construct: domain: domains 1 to 3; Genentech reagent; also called domains 1 to 3 of KDR
# Procedure: (§1) After 1 hour, the plates were washed, and the bound protein stained with streptavidin horseradish peroxidase conjugate (Pharmacia) and assayed. Affinities were estimated as IC₅₀ values: the concentration of KDR(1-3) or Flt(1-3) that blocked 50% of protein binding.
# Flt-1 (1-3) monomer = biological target: T2, Flt-1 (1-3) monomer (UniProt P17948 27-331, limits assumed, biotin-labeled in the ELISA of Example 8); test: competition ELISA: plate coated with VEGF (8-109), 100 pM biotin-labeled Flt1(1-3), serial dilutions of the competing VEGF (Example 8)
# T2 construct: domain: domains 1 to 3; Genentech reagent; also called Flt(1-3); domains 1 to 3 of Flt-1
# Procedure: as §1
# [2] = biological target: T3, Flt-IgG (a chimeric Flt-human Fc molecule) (UniProt P17948 27-758, limits assumed); test: competition ELISA vs biotinylated native VEGF, Flt-IgG captured by anti-Fc
# T3 construct: Only described as a chimeric Flt-human Fc molecule; not shown: human Fc
# Procedure: (§2) Receptor binding assays were performed in 96-well immunoplates (Maxisorp, Nunc-Immunoplate, Nalge Nunc International, Rochester, N.Y.). Each well was coated with 100 μl of a solution containing 2 μg/ml of rabbit F(ab′)2 to human IgG Fc (Jackson ImmunoResearch, West Grove, Pa.) in 50 mM carbonate buffer at pH 9.6 and incubated at 4° C. overnight. The supernatant was then discarded, the wells were washed three times in washing buffer (0.05% Tween 20 in PBS), and the plate was blocked (150 μl per well) with block buffer (0.5% BSA, 0.01% thimerosal in PBS) at room temperature for one hour. The supernatant was discarded, and the wells were washed.
# The wells were filled with 100 μl of a solution containing Flt-IgG (a chimeric Flt-human Fc molecule) at 50 ng/ml in assay buffer (0.5% BSA, 0.05% Tween 20 in PBS). The wells were incubated at room temperature for 1 hour and then washed three times in wash buffer (0.05% Tween 20 in PBS).
# (§3) Aliquots of the mixture (100 μl) were added to the precoated microtiter wells and the plate was incubated for 2 hours at room temperature. […] The wells were then incubated with 3,3′, 5,5′-tetramethyl benzidine (0.2 g/liter, Kirkegaard & Perry Laboratories, Gaithersburg, Md.) for about 10 minutes at room temperature. Absorbance was read at 450 nm on a Vmax plate reader (Molecular Devices, Menlo Park, Calif.).
# KDR (1-3) monomer [3] = biological target: T1, KDR (1-3) monomer; test: competition ELISA vs biotinylated VEGF (8-109), soluble KDR (1-3) captured by MAKD5
# Procedure: as §2, with “containing 8” for “containing 2”, “of a monoclonal antibody” for “of rabbit F(ab′)2”, “to KDR known as MAKD5 (Genentech, South San Francisco, Calif.)” for “to human IgG Fc (Jackson ImmunoResearch, West Grove, Pa.)”, “was” for “was then”
# as §3, with “of this” for “of the”, “for 1 hour” for “for 2 hours”, “(0.2 gram/liter;” for “(0.2 g/liter,”
# Titration curves were fit with a four-parameter nonlinear regression curve-fitting program (KaleidaGraph, Synergy Software, Reading, Pa.).
# [4] = biological target: gD-KDR receptor on CHO cells (UniProt P35968 20-1356); test: cell-based or functional assay
# T2 sequence (P17948 27-331 limits assumed): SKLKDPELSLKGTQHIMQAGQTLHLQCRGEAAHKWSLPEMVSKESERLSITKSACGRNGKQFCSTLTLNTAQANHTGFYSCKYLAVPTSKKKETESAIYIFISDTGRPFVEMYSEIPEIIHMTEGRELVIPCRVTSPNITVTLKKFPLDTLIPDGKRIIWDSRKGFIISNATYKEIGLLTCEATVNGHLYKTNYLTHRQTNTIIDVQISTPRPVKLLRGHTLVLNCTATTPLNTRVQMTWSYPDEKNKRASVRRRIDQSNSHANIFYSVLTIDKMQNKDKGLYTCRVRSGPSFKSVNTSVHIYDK
# T3 sequence (P17948 27-758 limits assumed, change not shown): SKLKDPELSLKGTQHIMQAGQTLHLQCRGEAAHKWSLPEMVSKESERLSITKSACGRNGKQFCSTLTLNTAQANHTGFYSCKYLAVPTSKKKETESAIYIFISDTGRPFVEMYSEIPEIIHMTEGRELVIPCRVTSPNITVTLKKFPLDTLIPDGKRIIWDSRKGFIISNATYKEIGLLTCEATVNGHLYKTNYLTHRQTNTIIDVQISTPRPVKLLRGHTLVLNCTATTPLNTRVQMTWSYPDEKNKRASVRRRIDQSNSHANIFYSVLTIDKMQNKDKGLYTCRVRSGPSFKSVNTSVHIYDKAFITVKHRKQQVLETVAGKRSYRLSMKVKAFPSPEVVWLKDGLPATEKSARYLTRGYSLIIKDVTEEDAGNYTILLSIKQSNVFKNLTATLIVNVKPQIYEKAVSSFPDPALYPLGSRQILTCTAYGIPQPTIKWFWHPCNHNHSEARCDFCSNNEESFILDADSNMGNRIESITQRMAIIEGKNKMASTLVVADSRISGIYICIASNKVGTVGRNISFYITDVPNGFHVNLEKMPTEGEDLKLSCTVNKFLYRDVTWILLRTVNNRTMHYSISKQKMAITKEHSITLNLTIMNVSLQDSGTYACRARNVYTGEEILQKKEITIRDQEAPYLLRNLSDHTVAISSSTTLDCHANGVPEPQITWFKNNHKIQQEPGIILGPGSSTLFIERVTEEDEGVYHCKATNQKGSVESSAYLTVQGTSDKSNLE
# T1 sequence (P35968 20-327 limits assumed): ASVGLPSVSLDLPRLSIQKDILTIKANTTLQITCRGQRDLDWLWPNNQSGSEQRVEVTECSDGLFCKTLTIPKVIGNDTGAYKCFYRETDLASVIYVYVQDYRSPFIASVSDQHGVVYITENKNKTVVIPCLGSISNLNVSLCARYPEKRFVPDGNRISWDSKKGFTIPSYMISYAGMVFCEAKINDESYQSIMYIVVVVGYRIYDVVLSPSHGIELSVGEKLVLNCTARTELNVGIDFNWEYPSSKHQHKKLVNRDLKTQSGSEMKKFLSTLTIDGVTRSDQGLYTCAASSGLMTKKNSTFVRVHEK
Binder,fold reduction in binding (IC50 variant / IC50 VEGF(1-109)) (KDR (1-3) monomer [1]),fold reduction in binding (IC50 variant / IC50 VEGF(1-109)) (Flt-1 (1-3) monomer),other results
B1,2 fold,1 fold,–
B2,96 fold,4 fold,–
B3,1 fold,10 fold,–
B4,5 fold,3 fold,–
B5,19 fold,29 fold,–
B6,9 fold,5 fold,–
B7,1 fold,1 fold,–
B8,1 fold,1 fold,–
B9,6 fold,7 fold,–
B10,45 fold,34 fold,–
B11,–,–,Relative Binding Affinity (ratio to native VEGF (8-109)) [2]: 300 fold; IC50 (KDR (1-3) monomer [3]): 0.5 nM; Relative Binding Affinity (ratio to native VEGF (8-109)) (KDR (1-3) monomer [3]): 0.5 fold
B12,5 fold,9 fold,–
B13,21 fold,3 fold,–
B14,1 fold,1 fold,–
B15,–,–,"IC50 [2]: 233 nM; Relative Binding Affinity (ratio to native VEGF (8-109)) [2]: 550 fold; IC50 (KDR (1-3) monomer [3]): 1 nM; Relative Binding Affinity (ratio to native VEGF (8-109)) (KDR (1-3) monomer [3]): 1 fold; Phosphorylation-Inducing Activity (KIRA), midpoint concentration [4]: 1 nM; Phosphorylation-Inducing Activity (KIRA), ratio to native VEGF (8-109) [4]: 0.5 fold"
B16,1 fold,1 fold,–
B17,–,–,"IC50 [2]: 4 nM; Relative Binding Affinity (ratio to native VEGF (8-109)) [2]: 10 fold; IC50 (KDR (1-3) monomer [3]): 0.5 nM; Relative Binding Affinity (ratio to native VEGF (8-109)) (KDR (1-3) monomer [3]): 0.5 fold; Phosphorylation-Inducing Activity (KIRA), midpoint concentration [4]: 1 nM; Phosphorylation-Inducing Activity (KIRA), ratio to native VEGF (8-109) [4]: 0.5 fold"
B18,1 fold,1 fold,–
B19,89 fold,7 fold,–
